In the supplement of paper PMC10567573:

B1: TCAP (parent)
chain: YQRVLPLPIFTPAKMGATKEERED

Variants of: B1
Test: protein stability index of a GFP-peptide fusion (GPS, HEK-293T) (PSI 1-6); higher = more stable
Conditions: c terminus: a fixed tail appended
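Further: lentivirally expressed fusions sorted by FACS into six bins by GFP to DsRed ratio, PSI derived from sequencing read proportions per bin multiplied by bin number.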

Protein stability index, by site and new letter:
A17: L 1.67, R 2.05, V 1.76, D 2.1, N 2.08, G 1.72, H 2.06, Q 1.86, C 2.24, P 1.97, E 2.07, Y 1.89, K 2.21, M 2.38, S 2.02, W 2.11, F 1.74, T 1.78, I 1.84
R22: E 2.34, G 2.47, F 1.85, C 2.04, A 1.9, D 2.18
K14: T 1.99, A 1.64, P 2.62, H 2.18, C 1.69, F 2.04, G 2.65, S 2.46, Y 1.97, L 1.81, I 1.61, M 1.77, V 2.78, N 2.32, Q 2.32, R 2.21, D 3.13, E 2.63, W 1.59
T18: Y 1.7, P 1.91, K 2.25, N 2.06, A 1.79, I 1.81, D 2.25, C 2.12, L 2.56, F 1.76, Q 2.39, H 1.95, E 3.02, M 1.52, V 2.38, G 1.96, R 2.4, S 1.81
A13: P 3.8, Y 1.86, W 2.02, M 2.31, S 2.53, N 1.67, T 2.64, Q 1.95, V 2.2, R 2.44
M15: Q 2.26, L 2.42, C 2.12, I 2.1, W 1.72, E 2.64, G 2.31, A 2.38, N 2.38, T 2.05, V 2.39, H 2.57, P 2.69, D 2.23, F 2.14, R 2.21, K 2.38, Y 2.21, S 2.92
E20: L 2.13, H 2.78, G 2.23, S 2.11, V 1.65, Q 1.73, D 2.02, M 2.4, N 1.89, I 2.04, Y 2.67, C 1.87, P 1.92, R 2.48, K 1.81, T 2.13, A 1.94, F 1.72, W 2.2
E21: A 1.91, C 2.28, D 2, T 1.92, P 2.54, W 2.41, I 2.2, Y 2.14, S 1.91, F 1.95, M 1.93, Q 1.98, G 1.75, R 1.97, H 2.22, N 1.81, V 2.35, L 2.06, K 2.1
K19: C 1.78, W 1.81, L 1.8, M 2.5, Q 1.91, A 2.02, D 2.03, G 2.42, Y 2.01, I 2.06, P 2.21, N 2.1, S 2.08, V 1.63, T 2.12, E 2.09, F 1.93, H 1.8, R 2.02
G16: F 2.14, C 2.06, V 2.39, E 2.16, A 1.9, Q 2.24, Y 2.07, I 1.92, M 1.56, S 2.16, T 1.95, D 1.92, K 1.7, L 1.81, H 1.34, W 1.8, N 1.67, R 2.05, P 1.96
